The source of these data is PMC5816668, “Insights into the inhibitory mechanisms of NADH on the αγ heterodimer of human NAD-dependent isocitrate dehydrogenase” (Scientific Reports, 2018).

Substrate in this series: NC(=O)c1ccc[n+]([C@@H]2O[C@H](COP(=O)(O)OP(=O)(O)OC[C@H]3O[C@@H](n4cnc5c(N)ncnc54)[C@H](O)[C@@H]3O)[C@@H](O)[C@H]2O)c1
Briefly: purified protein. It is filed as biochemical, Homo sapiens. Particulars: 33 mM Tris-acetate pH 7.4, 2 mM Mn2+, 20 mM DL-isocitrate, 25 °C, no NADH, Michaelis-Menten fit, varied: cofactor.

B1: αγ heterodimer of human NAD-IDH (Homo sapiens) (protein)
chain 1: TGGVQTVTLIPGDGIGPEISAAVMKIFDAAKAPIQWEERNVTAIQGPGGKWMIPSEAKESMDKNKMGLKGPLKTPIAAGHPSMNLLLRKTFDLYANVRPCVSIEGYKTPYTDVNIVTIRENTEGEYSGIEHVIVDGVVQSIKLITEGASKRIAEFAFEYARNNHRSNVTAVHKANIMRMSDGLFLQKCREVAESCKDIKFNEMYLDTVCLNMVQDPSQFDVLVMPNLYGDILSDLCAGLIGGLGVTPSGNIGANGVAIFESVHGTAPDIAGKDMANPTALLLSAVMMLRHMGLFDHAARIEAACFATIKDGKSLTKDLGGNAKCSDFTEEICRRVKDLD
chain 2: FSEQTIPPSAKYGGRHTVTMIPGDGIGPELMLHVKSVFRHACVPVDFEEVHVSSNADEEDIRNAIMAIRRNRVALKGNIETNHNLPPSHKSRNNILRTSLDLYANVIHCKSLPGVVTRHKDIDILIVRENTEGEYSSLEHESVAGVVESLKIITKAKSLRIAEYAFKLAQESGRKKVTAVHKANIMKLGDGLFLQCCREVAARYPQITFENMIVDNTTMQLVSRPQQFDVMVMPNLYGNIVNNVCAGLVGGPGLVAGANYGHVYAVFETATRNTGKSIANKNIANPTATLLASCMMLDHLKLHSYATSIRKAVLASMDNENMHTPDIGGQGTTSEAIQDVIRHIRVINGRAVEA
notes: E. coli BL21(DE3) Codon-Plus co-expression from pQlinkN-α-γ-tev-His6; C-terminal His6 of gamma cut with TEV protease; alpha 37 kDa, gamma 39 kDa; heterodimer
For the protein B1, the K0.5 is recorded as 0.267 ± 0.002 mM.
